In series [1] the target is TtCoAT (TT_C1083, CoA transferase from Thermus thermophilus HB27) with C-terminal (His)6-tag (Thermus thermophilus HB27) (UniProt Q72IP9). Nature of the series: SEC. A general note: SEC sorts molecules by how far they enter the pores of the column.
The target is the same in series [2]. Nature of the series: cryo-EM structure.
For series [3] the target is unchanged. Nature of the series: cryo-EM structure. This is another data set of the same source.
Series [4] deals with the molecule itself. As to the kind of experiment: cryo-EM structure.

“TtCoAT (TT_C1083, CoA transferase from Thermus thermophilus HB27) with C-terminal (His)6-tag (from UniProt Q72IP9 1-444) (enzyme)”: the stoichiometry N (as a rule, a count of units in the complex or per binding partner) in series [1] was found to be 4; in series [2], 2; in series [3], 2.

B1: ADLP (TT_C1082, alanine dehydrogenase-like protein from Thermus thermophilus HB27) with N-terminal Strep-tag (natural protein)
chain: MEFGVPKERSGGEIPERRVPLTPQGVRELVASGHRVYVERGAGEGAGFPDEAYEEAGARLVGREEAFGRPQVVLKVARPTLEEVGLMRKNAVLMAFLHLAVAESPLVEAMAQKGLTAIGYELVGEEGRRPVLKAMSEIAGRMAPQLAGRLLEAPQGPGILLSGLVGIPPADVVVLGAGVLGRAAARAFLGAGASVHLLDRALPPLEEAAREAPGAITALVTQDRLERYVAFADVLVGAVAVPGERTPLLLTRGLLARMRPGSVLLDFSIDQGGVSETSRPGVYQEMGVTHFCLPNVPALVPRTASHALTATLLPYLLRIQEDPLALPGLRQGAYLLFGEKGGHLE
Take B1: in series [4], the “stoichiometry N” value was 6.

The record behind these values is doi:10.1101/2025.10.31.685773 (bioRxiv, 2025).
